Series [1] deals with T1, CELF1 RRM1/2 (UniProt Q92879 1-187). The series can be described thus: FP.
The target of a further series is CELF1 RRM1/2 S147A (UniProt Q92879 1-187, S147A). The series can be described thus: FP.
The target of series [2] is T1, CELF1 RRM1/2. As to the kind of experiment: FP competition.

T1 sequence (Q92879 1-187): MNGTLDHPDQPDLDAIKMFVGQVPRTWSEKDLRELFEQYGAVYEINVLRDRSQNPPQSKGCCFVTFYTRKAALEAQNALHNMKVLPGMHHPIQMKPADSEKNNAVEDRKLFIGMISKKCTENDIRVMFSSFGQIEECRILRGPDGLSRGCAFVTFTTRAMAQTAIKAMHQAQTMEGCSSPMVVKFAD
Chain of CELF1 RRM1/2 S147A (Q92879 1-187 S147A): as the sequence (Q92879 1-187) above, with S147A counted along it

Turning to UUGUUGUU (ssRNA) [GU probe], the binding result with CELF1 RRM1/2 [1] and with CELF1 RRM1/2 S147A was “binds” each time.
Turning to UUGUUGUU (ssRNA) [GU cold probe], the binding result with CELF1 RRM1/2 [2] was “binds”.

Source of the values: article PMC8934652.
